Source: publication PMC4445065, “SOXE transcription factors form selective dimers on non-compact DNA motifs through multifaceted interactions between dimerization and high-mobility group domains”

What was measured:
[1] = target: T1, SOX9-NHMG (UniProt Q04887 1-181); experiment: EMSA; homodimer, cooperativity factor ~100 (about 10-fold diminished); EMSA: 10 mM Tris-HCl pH 8.0, 0.1 mg/ml BSA, 50 uM ZnCl2, 100 mM KCl, 10% glycerol, 0.1% Igepal CA630, 2 mM beta-mercaptoethanol, 50 nM DNA, 4 h at 4 C; CD: 50 mM phosphate pH 8.0, 4 h at 4 C; settings: protein: recombinant; tags: His6 or His-MBP fusion, removed by TEV; chain copies: 2; label: Cy5 forward strand
[2] = target: T1, SOX9-NHMG; experiment: EMSA; highly cooperative homodimer; cooperativity factor denoted infinite; EMSA: 10 mM Tris-HCl pH 8.0, 0.1 mg/ml BSA, 50 uM ZnCl2, 100 mM KCl, 10% glycerol, 0.1% Igepal CA630, 2 mM beta-mercaptoethanol, 50 nM DNA, 4 h at 4 C; CD: 50 mM phosphate pH 8.0, 4 h at 4 C; settings: protein: recombinant; tags: His6 or His-MBP fusion, removed by TEV; chain copies: 2; label: Cy5 forward strand
[3] = target: T1, SOX9-NHMG; experiment: EMSA; highly cooperative homodimer; EMSA: 10 mM Tris-HCl pH 8.0, 0.1 mg/ml BSA, 50 uM ZnCl2, 100 mM KCl, 10% glycerol, 0.1% Igepal CA630, 2 mM beta-mercaptoethanol, 50 nM DNA, 4 h at 4 C; CD: 50 mM phosphate pH 8.0, 4 h at 4 C; settings: protein: recombinant; tags: His6 or His-MBP fusion, removed by TEV; chain copies: 2; label: Cy5 forward strand
[4] = target: SOX9-NHMG;SOX9-HMG (;, UniProt Q04887;Q04887 1-181;103-181, |); experiment: EMSA; mixed dimer more prominent than SOX9-NHMG homodimer; EMSA: 10 mM Tris-HCl pH 8.0, 0.1 mg/ml BSA, 50 uM ZnCl2, 100 mM KCl, 10% glycerol, 0.1% Igepal CA630, 2 mM beta-mercaptoethanol, 50 nM DNA, 4 h at 4 C; CD: 50 mM phosphate pH 8.0, 4 h at 4 C; settings: protein: recombinant;recombinant; tags: His6 or His-MBP fusion, removed by TEV;; copies: 1;1; label: Cy5 forward strand
[5] = target: SOX9-NHMG;SOX10-DHMG (;, UniProt Q04887;Q04888 1-181;61-180, |); experiment: EMSA; heterodimer band; EMSA: 10 mM Tris-HCl pH 8.0, 0.1 mg/ml BSA, 50 uM ZnCl2, 100 mM KCl, 10% glycerol, 0.1% Igepal CA630, 2 mM beta-mercaptoethanol, 50 nM DNA, 4 h at 4 C; CD: 50 mM phosphate pH 8.0, 4 h at 4 C; settings: protein: recombinant;recombinant, tags: His6 or His-MBP fusion, removed by TEV;His6 or His-MBP fusion, copies: 1;1, label: Cy5 forward strand
[6] = target: SOX8-NHMG;SOX10-DHMG (;, UniProt Q04886;Q04888 1-175;61-180, |); experiment: as above; settings: protein: recombinant;recombinant, tags: His6 or His-MBP fusion, removed by TEV;His6 or His-MBP fusion, copies: 1;1, label: Cy5 forward strand
[7] = target: SOX9-DHMG;SOX8-NHMG (;, UniProt Q04887;Q04886 60-181;1-175, |); experiment: as above; settings: protein: recombinant;recombinant, tags: His6 or His-MBP fusion, removed by TEV;His6 or His-MBP fusion, copies: 1;1, label: Cy5 forward strand
[8] = target: SOX10-DHMG (UniProt Q04888 61-180); experiment: EMSA; homodimer, as cooperative as SOX9-NHMG; EMSA: 10 mM Tris-HCl pH 8.0, 0.1 mg/ml BSA, 50 uM ZnCl2, 100 mM KCl, 10% glycerol, 0.1% Igepal CA630, 2 mM beta-mercaptoethanol, 50 nM DNA, 4 h at 4 C; CD: 50 mM phosphate pH 8.0, 4 h at 4 C; settings: protein: recombinant; tags: His6 or His-MBP fusion, removed by TEV; chain copies: 2; label: Cy5 forward strand
[9] = target: SOX8-NHMG (UniProt Q04886 1-175); experiment: as above; settings: protein: recombinant; tags: His6 or His-MBP fusion, removed by TEV; chain copies: 2; label: Cy5 forward strand
[10] = target: SOX9-NHMG;SOX10-HMG (;, UniProt Q04887;Q04888 1-181;102-180, |); experiment: EMSA; heterodimer more prominent than SOX9-NHMG homodimer; EMSA: 10 mM Tris-HCl pH 8.0, 0.1 mg/ml BSA, 50 uM ZnCl2, 100 mM KCl, 10% glycerol, 0.1% Igepal CA630, 2 mM beta-mercaptoethanol, 50 nM DNA, 4 h at 4 C; CD: 50 mM phosphate pH 8.0, 4 h at 4 C; settings: protein: recombinant;recombinant; tags: His6 or His-MBP fusion, removed by TEV;N-terminal His6 (Methods, possibly only this construct); copies: 1;1; label: Cy5 forward strand
[11] = target: SOX9-NHMG;SOX8-HMG (;, UniProt Q04887;Q04886 1-181;97-175, |); experiment: as above; settings: protein: recombinant;recombinant; tags: His6 or His-MBP fusion, removed by TEV;; copies: 1;1; label: Cy5 forward strand
[12] = target: SOX10-DHMG;SOX9-HMG (;, UniProt Q04888;Q04887 61-180;103-181, |); experiment: EMSA; mixed dimer with single DIM; EMSA: 10 mM Tris-HCl pH 8.0, 0.1 mg/ml BSA, 50 uM ZnCl2, 100 mM KCl, 10% glycerol, 0.1% Igepal CA630, 2 mM beta-mercaptoethanol, 50 nM DNA, 4 h at 4 C; CD: 50 mM phosphate pH 8.0, 4 h at 4 C; settings: protein: recombinant;recombinant; tags: His6 or His-MBP fusion, removed by TEV;; copies: 1;1; label: Cy5 forward strand
[13] = target: SOX8-NHMG;SOX8-HMG (;, UniProt Q04886;Q04886 1-175;97-175, |); experiment: as above; settings: protein: recombinant;recombinant; tags: His6 or His-MBP fusion, removed by TEV;; copies: 1;1; label: Cy5 forward strand
[14] = target: SOX8-NHMG;SOX10-HMG (;, UniProt Q04886;Q04888 1-175;102-180, |); experiment: as above; settings: protein: recombinant;recombinant; tags: His6 or His-MBP fusion, removed by TEV;N-terminal His6 (Methods, possibly only this construct); copies: 1;1; label: Cy5 forward strand
[15] = target: SOX8-NHMG;SOX9-HMG (;, UniProt Q04886;Q04887 1-175;103-181, |); experiment: as above; settings: protein: recombinant;recombinant; tags: His6 or His-MBP fusion, removed by TEV;; copies: 1;1; label: Cy5 forward strand
[16] = target: SOX10-DHMG;SOX10-HMG (;, UniProt Q04888;Q04888 61-180;102-180, |); experiment: as above; settings: protein: recombinant;recombinant; tags: His6 or His-MBP fusion, removed by TEV;N-terminal His6 (Methods, possibly only this construct); copies: 1;1; label: Cy5 forward strand
[17] = target: SOX10-DHMG;SOX8-HMG (;, UniProt Q04888;Q04886 61-180;97-175, |); experiment: as above; settings: protein: recombinant;recombinant; tags: His6 or His-MBP fusion, removed by TEV;; copies: 1;1; label: Cy5 forward strand

Measured: binding result

T1 sequence (Q04887 1-181): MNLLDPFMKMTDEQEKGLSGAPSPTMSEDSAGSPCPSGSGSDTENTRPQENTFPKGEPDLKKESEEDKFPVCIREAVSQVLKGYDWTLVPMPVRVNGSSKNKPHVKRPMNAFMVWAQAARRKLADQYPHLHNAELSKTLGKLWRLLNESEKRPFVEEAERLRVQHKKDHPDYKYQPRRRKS
SOX8-NHMG;SOX9-HMG, sequence (Q04886 1-175, chain 1 of 2): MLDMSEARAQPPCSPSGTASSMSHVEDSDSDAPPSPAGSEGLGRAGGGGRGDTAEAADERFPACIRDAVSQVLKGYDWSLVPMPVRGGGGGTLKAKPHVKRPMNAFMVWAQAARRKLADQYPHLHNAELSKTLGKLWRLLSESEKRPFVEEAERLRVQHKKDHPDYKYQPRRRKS
SOX8-NHMG;SOX9-HMG, sequence (Q04886 97-175 S141N, chain 2 of 2): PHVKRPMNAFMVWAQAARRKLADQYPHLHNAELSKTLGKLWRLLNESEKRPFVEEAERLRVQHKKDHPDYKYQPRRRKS
SOX8-NHMG, sequence (Q04886 1-175): as the sequence (Q04886 1-175, chain 1 of 2) above
SOX8-NHMG;SOX10-DHMG, sequence (Q04886 1-175, chain 1 of 2): as above
SOX8-NHMG;SOX10-DHMG, sequence (Q04888 61-180, chain 2 of 2): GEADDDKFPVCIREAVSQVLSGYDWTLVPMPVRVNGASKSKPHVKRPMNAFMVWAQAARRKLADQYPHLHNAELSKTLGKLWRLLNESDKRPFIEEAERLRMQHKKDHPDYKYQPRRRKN
SOX8-NHMG;SOX8-HMG, sequence (Q04886 1-175, chain 1 of 2): as the sequence (Q04886 1-175, chain 1 of 2) above
SOX8-NHMG;SOX8-HMG, sequence (Q04886 97-175, chain 2 of 2): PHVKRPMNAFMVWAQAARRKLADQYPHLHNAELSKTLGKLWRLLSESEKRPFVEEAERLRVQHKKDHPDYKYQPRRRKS
SOX8-NHMG;SOX10-HMG, sequence (Q04886 1-175, chain 1 of 2): as the sequence (Q04886 1-175, chain 1 of 2) above
SOX8-NHMG;SOX10-HMG, sequence (Q04886 other isoform, or with tags, fused parts or gaps |, chain 2 of 2): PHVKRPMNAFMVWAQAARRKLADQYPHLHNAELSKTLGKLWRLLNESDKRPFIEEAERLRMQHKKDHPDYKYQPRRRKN
SOX9-DHMG;SOX8-NHMG, sequence (Q04887 60-181, chain 1 of 2): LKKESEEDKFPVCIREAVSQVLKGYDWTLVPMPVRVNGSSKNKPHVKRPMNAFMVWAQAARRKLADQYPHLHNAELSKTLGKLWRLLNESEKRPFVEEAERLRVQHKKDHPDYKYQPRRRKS
SOX9-DHMG;SOX8-NHMG, sequence (Q04886 1-175, chain 2 of 2): as the sequence (Q04886 1-175, chain 1 of 2) above
SOX10-DHMG;SOX10-HMG, sequence (Q04888 61-180, chain 1 of 2): as the sequence (Q04888 61-180, chain 2 of 2) above
SOX10-DHMG;SOX10-HMG, sequence (Q04888 102-180, chain 2 of 2): as the sequence (Q04886 other isoform, or with tags, fused parts or gaps |, chain 2 of 2) above
SOX10-DHMG;SOX9-HMG, sequence (Q04888 61-180, chain 1 of 2): as the sequence (Q04888 61-180, chain 2 of 2) above
SOX10-DHMG;SOX9-HMG, sequence (Q04888 other isoform, or with tags, fused parts or gaps |, chain 2 of 2): as the sequence (Q04886 97-175 S141N, chain 2 of 2) above
SOX10-DHMG;SOX8-HMG, sequence (Q04888 61-180, chain 1 of 2): as the sequence (Q04888 61-180, chain 2 of 2) above
SOX10-DHMG;SOX8-HMG, sequence (Q04888 other isoform, or with tags, fused parts or gaps |, chain 2 of 2): as the sequence (Q04886 97-175, chain 2 of 2) above
SOX10-DHMG, sequence (Q04888 61-180): as the sequence (Q04888 61-180, chain 2 of 2) above
SOX9-NHMG;SOX10-DHMG, sequence (Q04887 1-181, chain 1 of 2): as the sequence (Q04887 1-181) above
SOX9-NHMG;SOX10-DHMG, sequence (Q04887 other isoform, or with tags, fused parts or gaps |, chain 2 of 2): as the sequence (Q04888 61-180, chain 2 of 2) above
SOX9-NHMG;SOX10-HMG, sequence (Q04887 1-181, chain 1 of 2): as the sequence (Q04887 1-181) above
SOX9-NHMG;SOX10-HMG, sequence (Q04887 other isoform, or with tags, fused parts or gaps |, chain 2 of 2): as the sequence (Q04886 other isoform, or with tags, fused parts or gaps |, chain 2 of 2) above
SOX9-NHMG;SOX9-HMG, sequence (Q04887 1-181, chain 1 of 2): as the sequence (Q04887 1-181) above
SOX9-NHMG;SOX9-HMG, sequence (Q04887 103-181, chain 2 of 2): as the sequence (Q04886 97-175 S141N, chain 2 of 2) above
SOX9-NHMG;SOX8-HMG, sequence (Q04887 1-181, chain 1 of 2): as the sequence (Q04887 1-181) above
SOX9-NHMG;SOX8-HMG, sequence (Q04887 103-181 N147S, chain 2 of 2): as the sequence (Q04886 97-175, chain 2 of 2) above

B1: 6 bp spacer SOX dimer probe (dsDNA)
DNA 1: CCGAAAACAAAGGATTACCTTTGTTTTGCC
DNA 2: GGCAAAACAAAGGTAATCCTTTGTTTTCGG
binds: [1]

B2: 5 bp spacer SOX dimer probe (dsDNA)
DNA 1: GCCGAAAACAAAGGATACCTTTGTTTTGCC
DNA 2: GGCAAAACAAAGGTATCCTTTGTTTTCGGC
binds: [2]

B3: 3 bp spacer SOX dimer probe (dsDNA)
DNA 1: CGCCGAAAACAAAGGACCTTTGTTTTGCCG
DNA 2: CGGCAAAACAAAGGTCCTTTGTTTTCGGCG
binds: [3]

B4: 4 bp spacer SOX dimer probe (dsDNA)
DNA 1: GCCGAAAACAAAGGAACCTTTGTTTTGCCG
DNA 2: CGGCAAAACAAAGGTTCCTTTGTTTTCGGC
binds: [4] | [5] | [6] | [7] | [8] | [9] | [2] | [10] | [11] | [12] | [13] | [14] | [15] | [16] | [17]

B5: 1 bp spacer SOX dimer probe (dsDNA)
DNA 1: CCGCCGAACAATGTCATTGTTGCCGCC
DNA 2: GGCGGCAACAATGACATTGTTCGGCGG
binds: [1]

B6: 0 bp spacer SOX dimer probe (dsDNA)
DNA 1: CCGCCGTAACAATGCATTGTTGCCGCC
DNA 2: GGCGGCAACAATGCATTGTTACGGCGG
binds: [1]

B7: 2 bp spacer SOX dimer probe (dsDNA)
DNA 1: CGCCGAAAACAAAGGCCTTTGTTTTGCCGC
DNA 2: GCGGCAAAACAAAGGCCTTTGTTTTCGGCG
binds: [1]
